These results are taken from publication PMC13454268 (Nature Communications, 2026).

The target of one assay is T1, R. rubrum rubisco (Rhodospirillum rubrum, UniProt P04718).
T1 construct: gene cbbM; form II large subunit, L2 homodimer
T1 sequence (P04718 1-466): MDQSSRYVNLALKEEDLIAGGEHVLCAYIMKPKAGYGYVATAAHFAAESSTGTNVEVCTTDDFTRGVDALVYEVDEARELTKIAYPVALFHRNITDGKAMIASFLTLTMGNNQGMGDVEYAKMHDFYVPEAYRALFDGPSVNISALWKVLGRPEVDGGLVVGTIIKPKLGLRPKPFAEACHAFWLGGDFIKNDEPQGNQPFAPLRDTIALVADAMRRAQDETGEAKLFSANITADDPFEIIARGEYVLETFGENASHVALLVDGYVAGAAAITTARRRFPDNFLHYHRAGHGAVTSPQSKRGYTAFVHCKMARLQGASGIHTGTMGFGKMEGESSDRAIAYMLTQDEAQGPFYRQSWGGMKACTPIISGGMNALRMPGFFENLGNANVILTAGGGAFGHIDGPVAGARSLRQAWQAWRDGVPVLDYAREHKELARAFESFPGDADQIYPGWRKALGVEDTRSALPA
The assay can be described thus: […]-CABP binding, liquid scintillation (active-site count). To be noted: activated enzyme; labelled compound.

Assay [1] deals with Ammonifex degensii KC4 form Iβ rubisco (Ammonifex degensii KC4). In words: SEC-SAXS; 100 µl samples, 1-45 mg/ml rubisco incubated with or without CABP; Shodex KW804 column; 20 mM HEPES-OH pH 8.0, 300 mM NaCl, 10 mM MgCl2, 10 mM NaHCO3; 20 °C; molecular weight by volume of correlation. In general terms: In gel filtration, larger molecules generally elute earlier.
The target of assay [2] is Fervidicoccus fontis form Iβ rubisco (Fervidicoccus fontis). Described as above.
Assay [3] concerns the target Prometheoarchaeum syntrophicum rubisco (Prometheoarchaeum syntrophicum). The description is as above.
The target of assay [4] is Rhodopseudomonas faecalis form II rubisco (Rhodopseudomonas faecalis). Described as above.
Assay [5] deals with Thermodesulfobium acidiphilum form Iβ rubisco (Thermodesulfobium acidiphilum). The assay is described as above.

For the compound `O=C(O)[C@@](O)(COP(=O)(O)O)[C@H](O)[C@H](O)COP(=O)(O)O` [CABP], the “14C-CABP binding, liquid scintillation (active-site count)” value at R. rubrum rubisco is given as “An aliquot of activated R. rubrum was used for determination of rubisco active sites”.
For the compound “Ammonifex degensii KC4 form Iβ rubisco (enzyme)”, the stoichiometry N (usually a count of units in the complex or per binding partner) in assay [1] was 2.
“Fervidicoccus fontis form Iβ rubisco (enzyme)” gave a stoichiometry N in assay [2] of 2.
Regarding “Prometheoarchaeum syntrophicum rubisco (enzyme)”, the stoichiometry N in assay [3] worked out at 2.
“Rhodopseudomonas faecalis form II rubisco (enzyme)” yielded a stoichiometry N in assay [4] of 6.
“Thermodesulfobium acidiphilum form Iβ rubisco (enzyme)” yielded a stoichiometry N in assay [5] of 2.
